Experimental data from patent US10117916B2, “Peptides and combination of peptides for use in immunotherapy against CLL and other cancers” (immatics biotechnologies GmbH, priority 2015, dated 2018).

Tests used:
HLA-A*02:01 = HLA-A*02:01 (Homo sapiens, UniProt P04439, D140Y/D185E/D98H/E176V/E277Q/G131W/G231S/I119V/I121R/I166T/I218V/L300P/L318F/N151K/N90K/P208A/P217A/Q86G/Q94H/R138H/R169H/T345S); assay: MHC binding assay: UV-ligand exchange with β2m ELISA (peptide exchange yield); conditions: MHC class I binding score; binding to HLA-A*02:01 ranged by peptide exchange yield (UV-ligand exchange, β2m ELISA)
Summary of the method: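 UV-cleavable peptide in HLA monomers exchanged for test peptide by UV irradiation; exchange yield measured by streptavidin-capture ELISA with HRP anti-β2m (TMB, 450 nm) on 100-fold diluted complexes. Quantified against refolded HLA-A*02:01/MLA-001 standards (15-500 ng/ml).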

CD8+ T cells = assay: In vitro immunogenicity: T-cell priming with aAPCs loaded with peptide/MHC and anti-CD28, pMHC multimer readout; assay type: cell-based, human; conditions: HLA-A*02 restricted peptides; CD8+ T cells of healthy donors; three stimulation cycles
Procedure: In an aspect, the peptides are pre-screened for immunogenicity before being included in the warehouse. By way of example, and not limitation, the immunogenicity of the peptides included in the warehouse is determined by a method comprising in vitro T-cell priming through repeated stimulations of CD8+ T cells from healthy donors with artificial antigen presenting cells loaded with peptide/MHC complexes and anti-CD28 antibody.
CD8+ T cells were primed using artificial APCs coated with anti-CD28 mAb and HLA-A*02 in complex with SeqID No 1 peptide (FIG. 3C, left panel), SeqID No 5 peptide (FIG. 3D left panel), SeqID No 32 peptide (FIG. 3E, left panel) and SeqID No 220 peptide (FIG. 3F, left panel), respectively. After three cycles of stimulation, the detection of peptide-reactive cells was performed by 2D multimer staining with A*02/SeqID No 1 (FIG. 3C), A*02/SeqID No 5 (FIG. 3D), A*02/SeqID No 32 (FIG. 3E) or A*02/SeqID No 220 (FIG. 3F). Right panels (FIGS. 3C, 3D, 3E and 3F) show control staining of cells stimulated with irrelevant A*02/peptide complexes. Viable singlet cells were gated for CD8+ lymphocytes. Boolean gates helped excluding false-positive events detected with multimers specific for different peptides.
In order to obtain information regarding the immunogenicity of the TUMAPs of the present invention, the inventors performed investigations using an in vitro T-cell priming assay based on repeated stimulations of CD8+ T cells with artificial antigen presenting cells (aAPCs) loaded with peptide/MHC complexes and anti-CD28 antibody.
In order to perform in vitro stimulations by artificial antigen presenting cells loaded with peptide-MHC complex (pMHC) and anti-CD28 antibody, the inventors first isolated CD8+ T cells from fresh HLA-A*02 leukapheresis products via positive selection using CD8 microbeads (Miltenyi Biotec, Bergisch-Gladbach, Germany) of healthy donors obtained from the University clinics Mannheim, Germany, after informed consent.
PBMCs and isolated CD8+ lymphocytes were incubated in T-cell medium (TCM) until use consisting of RPMI-Glutamax (Invitrogen, Karlsruhe, Germany) supplemented with 10% heat inactivated human AB serum (PAN-Biotech, Aidenbach, Germany), 100 U/ml Penicillin/100 μg/ml Streptomycin (Cambrex, Cologne, Germany), 1 mM sodium pyruvate (CC Pro, Oberdorla, Germany), 20 μg/ml Gentamycin (Cambrex). 2.5 ng/ml IL-7 (PromoCell, Heidelberg, Germany) and 10 U/ml IL-2 (Novartis Pharma, Nirnberg, Germany) were also added to the TCM at this step.
Generation of pMHC/anti-CD28 coated beads, T-cell stimulations and readout was performed in a highly defined in vitro system using four different pMHC molecules per stimulation condition and 8 different pMHC molecules per readout condition.
The purified co-stimulatory mouse IgG2a anti human CD28 Ab 9.3 (Jung et al., 1987) was chemically biotinylated using Sulfo-N-hydroxysuccinimidobiotin as recommended by the manufacturer (Perbio, Bonn, Germany). Beads used were 5.6 μm diameter streptavidin coated polystyrene particles (Bangs Laboratories, Illinois, USA).
800.000 beads/200 μl were coated in 96-well plates in the presence of 4×12.5 ng different biotin-pMHC, washed and 600 ng biotin anti-CD28 were added subsequently in a volume of 200 μl. Stimulations were initiated in 96-well plates by co-incubating 1×10^6 CD8+ T cells with 2×10^5 washed coated beads in 200 μl TCM supplemented with 5 ng/ml IL-12 (PromoCell) for 3 days at 37° C. Half of the medium was then exchanged by fresh TCM supplemented with 80 U/ml IL-2 and incubating was continued for 4 days at 37° C. This stimulation cycle was performed for a total of three times. For the pMHC multimer readout using 8 different pMHC molecules per condition, a two-dimensional combinatorial coding approach was used as previously described (Andersen et al., 2012) with minor modifications encompassing coupling to 5 different fluorochromes.

Substance | Peptide Exchange (HLA-A*02:01) | Wells positive [%] (CD8+ T cells)
192 (YIQEYLTLL; listed as Homo sapiens) [compound 192] | ″+++″ (≥50 = +++) | ″+″ (<20% = +)
197 (YLQEVPILTL; listed as Homo sapiens) [compound 197] | ″++++″ (≥75% = ++++) | ″+″ (<20% = +)
200 (YMFEEVPIVI; listed as Homo sapiens) [compound 200] | ″++++″ (≥75% = ++++) | ″+″ (<20% = +)
201 (YQLELHGIEL; listed as Homo sapiens) [compound 201] | ″++++″ (≥75% = ++++) | ″+″ (<20% = +)
202 (YVDDVFLRV; listed as Homo sapiens) [compound 202] | ″++++″ (≥75% = ++++) | ″++″ (20%-49% = ++)
220 (ALPEILFAKV; listed as Homo sapiens) [compound 220] | ″+++″ (≥50 = +++) | ″++″ (20%-49% = ++)
240 (ILARDILEI; listed as Homo sapiens) [compound 240] | ″+++″ (≥50 = +++) | ″+″ (<20% = +)
281 (NLLDDRGMTAL; listed as Homo sapiens) [compound 281] | ″+++″ (≥50 = +++) | ″+″ (<20% = +)
282 (LLRDGIELV; listed as Homo sapiens) [compound 282] | ″+++″ (≥50 = +++) | ″++″ (20%-49% = ++)
307 (LLLTKPTEA; listed as Homo sapiens) [compound 307] | ″+++″ (≥50 = +++) | ″+″ (<20% = +)
320 (TIAPVTVAV; listed as Homo sapiens) [compound 320] | ″++++″ (≥75% = ++++) | ″+″ (<20% = +)
322 (SLASIHVPL; listed as Homo sapiens) [compound 322] | ″+++″ (≥50 = +++) | ″+″ (<20% = +)
323 (SLDLFNCEV; listed as Homo sapiens) [compound 323] | ″++++″ (≥75% = ++++) | ″+″ (<20% = +)
329 (VLMDGSVKL; listed as Homo sapiens) [compound 329] | ″++++″ (≥75% = ++++) | ″+++″ (50%-69% = +++)
332 (VMIQHVENL; listed as Homo sapiens) [compound 332] | ″+++″ (≥50 = +++) | ″+″ (<20% = +)
380 (YLDRKLLTL; listed as Homo sapiens) [compound 380] | ″+++″ (≥50 = +++) | ″++++″ (> = 70% = ++++)
